Test results reported in paper PMC10732398 (PLOS Pathogens, 2023).

Columns and labels:
⍺4β7 = test: SPR: inhibition by linear peptides of soluble ⍺4β7 binding to a CD4 D1D2 coated surface; details: for inhibition of ⍺4β7 binding to CD4 D1D2 coated surface: SPR peptide scan (Fig 4A), ⍺4β7 pre-incubated with peptide 2 hours at room temperature, 1 mM MnCl2; for inhibition of ⍺4β7 binding to D1D2 (in words): SPR, Fig 7B, 7D, S5 Fig
Text: We next modified our SPR -based assay in order to map the site(s) on CD4 that interacts with ⍺4β7. In this modified assay ⍺4β7 was passed over a surface coated with CD4 D1D2 in the absence or presence of 42 overlapping 15 amino acid linear peptides spanning CD4 residues 1–178 (S2 Table). Two peptides located in CD4 D1, #7 and #9, inhibited ⍺4β7 binding by ~17% (Fig 4A). The final peptide in CD4 D2, p42, inhibited binding by ~ 66%. Linear peptides often lack the true conformation of the protein from which they are derived. Additionally, the kinetic format of our assay allows for ligand-analyte rebinding during the association phase. These features render this inhibition assay somewhat insensitive. Nevertheless, the dynamic range of this assay is sufficient to identify interactions that are worthy of follow-up investigation (S4 Fig). As such, our preliminary findings raised the possibility that both D1 and D2 domains of CD4 interact with ⍺4β7. Of note, MAdCAM-1 and VCAM-1, like CD4, present two tandemly arrayed N-terminal IgSF domains (Fig 4B). In both cases, binding to ⍺4β7 is mediated by a 1° binding site in their D1s and an accessory site, located in their D2s. The term accessory is a misnomer insofar as these sites plays an essential role in ⍺4β7 binding. Follow-up experiments focused on p9 and p42, which we herein refer to as pCD4^33-47 and pCD4^165-178. pCD4^33-47 partially overlaps the D1 C’C” β-strands and a connecting loop. The primary gp120 contact site (Phe^43) lies at the N-terminal edge of this loop (Fig 4C). pCD4^165-178 includes Q^165 and K^166. These residues lie primarily within the G β-strand of D2, close to the boundary with D3. Because peptide inhibition assays sometime mediate nonspecific effects, further analysis was performed to better establish the role of these two regions of CD4 in binding to ⍺4β7.
To determine if this is the case, we employed an SPR -based assay. Biosensor surfaces were coated with either CD4 D1D2 or a 42 aa cyclic V2 peptide derived from the subtype E 92TH023 gp120 (cV2 92TH023). A third surface coated with MAdCAM-Ig was employed as a positive control. Soluble ⍺4β7 was passed over these surfaces. We then evaluated the capacity of staggered 15 aa peptides that span either CD4 D2 or gp120 V2 to inhibit this interaction (Fig 7A).
Experiments were performed using a Biacore 3000 instrument (Cytiva Life Sciences) using CM4 or CM5 sensor chips. The data were evaluated using BIAevaluation 4.1.1 software (Cytiva Life Sciences). The chip surface was activated by injecting 35 μl of a 1:1 mixture of 0.05 M N-hydroxysuccinimide and 0.2 M N-ethyl-N-(dimethylaminopropyl) carbodiimide at 5 μl/min. NeutrAvidin, HIV gp120, sCD4 (D1D2) or Hu-MAdCAM-Ig (R&D Systems) at concentrations of 5 μg/ml in 10mM NaOAc, pH 4.5, were immobilized to 250–750 resonance units (RU). After the proteins were immobilized to the desired densities, unreacted sites were blocked with 35 μl of 1 M Tris-HCl (pH 8.0). Biotinylated cyclic V2 peptides (1 μg/ml in 20 mM Tris-HCl, pH 8.0) were bound to the NeutrAvidin surfaces to densities of approximately 250–300 RU. One surface was activated and blocked without ligand as a control surface for non-specific binding. Signal from the control surface was subsequently subtracted. Running buffer was HBS (pH 7.4), 1 mM MnCl2, 0.005% Tween- 20, 0.05% soluble carboxymethyl-dextran. Binding experiments were carried out at a flow rate of 25 μl/min at 25°C. After a 2 min injection, the surface was washed for an additional 2 min in running buffer allowing dissociation of the bound ligand from the surface. The surfaces were regenerated by multiple injections of 4.5 M MgCl2 at a flow rate of 100 μl/min. Inhibition of ⍺4β7 binding by linear V2-loop and CD4 derived peptides was carried out by pre-incubating ⍺4β7 with the peptides in running buffer at the indicated concentrations for 2 hours at room temperature prior to passing them over the prepared surfaces as described above. […]

[1] = tested on: ⍺4β7 on primary CD8^+ T cells; test: Flow cytometry: FAM-conjugated pCD4^165-178 binding to RA-treated primary CD8^+ T cells; set-up: species or system human; details: FAM-Ttds-labelled peptide 1.25 μg/200,000 cells in 100 μl; MnCl2; 3 independent experiments
Text: To further investigate the interaction between pCD4^165-178 and ⍺4β7 we attached a fluorescein dye to its amino terminus via a trioxatridecan-succinamic acid (Ttds) linker (Fig 5A). A scrambled pCD4^165-178 was employed as a control. […] FIB504 and vedolizumab inhibited binding by ~50%. This inhibition pattern resembles the one we obtained when inhibiting D1D2-Ig⍺tp with the same antagonists (Fig 3). We conclude that the CD4 D2 G β-strand binds directly to the headpiece region of ⍺4β7 in a cation dependent manner. Support for this conclusion, in the form of site directed mutagenesis within the D2 G β-strand is provided below.
Fig 5 Direct binding of pCD4^165-178 to ⍺4β7 on primary T cells. (A) Sequence of FAM -conjugated pCD4^165-178 and a scrambled derivative (FAM-scr pCD4^165-178). (B) Flow-cytometry derived histogram of pCD4^165-178 binding to RA -cultured CD8^+ T cells. pCD4^165-178 in the presence (green), or absence of Mn^++(black). Unstained cells are shown (grey). (C) Binding of pCD4^165-178 and its scrambled derivative to CD8^+ T cells in the presence of MnCl2 as in panel B, and in the presence of ⍺4 and ⍺4β7 antagonists, as indicated. Y-axis indicates % cells bound. Error bars represent standard error from 3 independent experiments.
Cells were stained with fluoresceine conjugated mAbs or recombinant proteins using standard procedures preceded by Fc receptor blocking with human IgG. Buffers used were 10 mM HEPES 150 mM NaCl (HBS Buffer) with 100 μM CaCl2. 1 mM MnCl2 was also included, unless otherwise specified. Buffer without divalent cations included 0.1 mM EDTA. Unlabeled mAb or protein inhibitors were preincubated with cells or proteins at a 5X molar excess for 15 min on ice. FAM labeled peptides were used at 1.25 μg/ 200,000 cells in a 100 μl volume. Data were acquired using a FACSCanto II (BD Biosciences) and analyzed with FlowJo software (BD Biosciences). Plotted MFI values represent absolute values.

[2] = tested on: ⍺4β7 transfected 293T cells; test: Flow cytometry: staining of 293T cells co-transfected with ⍺4 and β7 expression vectors; assay type: binding; details: Fig 1C
Text: The FRET/FLIM results described above indicate a direct interaction between CD4 and ⍺4β7. […] To this end we employed a fluorescently labelled soluble dodecameric CD4 Ig fusion protein, termed D1D2-Ig⍺tp, that includes the two N-terminal Ig-like domains of CD4 (D1D2, aa 1–180), followed by IgG1 CH2 and CH3 domains, followed by the 18 aa tail-piece domain of IgA (⍺tp). In this oligomer, 12 D1D2-Igs are arranged in a disulphide linked daisy-chain (Fig 1A). Primary CD4^+ T cells, some of which express ⍺4β7, were reacted with D1D2-Ig⍺tp and analyzed by flow-cytometry. A second oligomeric Ig fusion protein, MicA-Ig⍺tp, which includes the two N-terminal domains of MicA, was employed as a specificity control. […] MAdCAM-Ig was employed as a positive control. […] We conclude that an oligomeric soluble CD4 that includes only its two N-terminal domains can bind to ⍺4β7 in a specific way.
Fig 1 Binding of soluble CD4 to ⍺4β7 on CD4^+ T cells. (A) Schematic of D1D2-Ig⍺tp. […] X-axis indicates geometric mean fluorescence intensity (gMFI). […]
Cells were stained with fluoresceine conjugated mAbs or recombinant proteins using standard procedures preceded by Fc receptor blocking with human IgG. […] Data were acquired using a FACSCanto II (BD Biosciences) and analyzed with FlowJo software (BD Biosciences). […]

[3] = biological target: BG505 SOSIP env trimer (HIV-1 BG505); test: SPR
[4] = biological target: BG505 gp120 (monomeric gp120) (HIV-1 BG505); test: SPR
[5] = biological target: CD4 D1D2 protein (23 kD, aa 1-183) (human); test: SPR
[6] = biological target: T1, soluble α4β7 (recombinant integrin α4β7) (UniProt P13612 35-977; P26010 20-723); test: SPR; details: both partners purified
T1 construct: also called integrin ⍺4β7; recombinant ⍺4β7

Q: “QFHWKNSNQIKILGN [CD4 P7, overlapping linear CD4 peptide, CD4 D1]” was tested. Which “inhibition of ⍺4β7 binding to CD4 D1D2 coated surface” value (⍺4β7) did it give?
A: ~ 17%

Q: For CCOCc1cc(OC)c(-c2ccc(C[C@H](NC(=O)c3c(F)cccc3F)C(=O)O)cc2)c(OC)c1 [FG, firategrast], which “reduction of pCD4^165-178 binding to CD8^+ T cells” value [1] is on record?
A: ~ 80%

Q: What about the “inhibition of D1D2-Ig⍺tp and MAdCAM-Ig binding to ⍺4β7 transfected 293T cells (in words)” value [2] of the same molecule?
A: inhibited

Q: How did the “inhibition of ⍺4β7 binding to D1D2 (in words)” value (“inhibition … to D1D2 (in words)” below) (⍺4β7) turn out when “VEFKIDIVVLAFQK [CD4 P43, overlapping linear CD4 D2 peptide]” was run?
A: reduced inhibition relative to pCD4^165-178

Q: “IVVLAFQKASSIVY [CD4 P45, overlapping linear CD4 D2 peptide]” was tested. Which “inhibition … to D1D2 (in words)” value (⍺4β7) did it give?
A: unable to inhibit

Q: “KIDIVVLAFQKASS [CD4 P44, overlapping linear CD4 D2 peptide]” was tested. Which “inhibition … to D1D2 (in words)” value (⍺4β7) did it give?
A: unable to inhibit

Q: For “QIKILGNQGSFLTKG [CD4 P9, linear CD4 D1 peptide overlapping the C'C'' β-strands and connecting loop]”, which “inhibition of ⍺4β7 binding to CD4 D1D2 coated surface” value (⍺4β7) is on record?
A: ~ 17%

Q: Which results are given for “soluble α4β7 (recombinant integrin α4β7) (from UniProt P13612 35-977; P26010 20-723) (complex)”?
A: Ka [3]: 7.47e+08 M⁻¹; Kd [3]: 1.34 nM; koff [3]: 0.00112 s⁻¹; kon [3]: 840000 M⁻¹ s⁻¹; Ka [4]: 1.01e+09 M⁻¹; Kd [4]: 0.994 nM; koff [4]: 0.00136 s⁻¹; kon [4]: 1.37e+06 M⁻¹ s⁻¹; Ka [5]: 2.8e+08 M⁻¹; koff [5]: 0.000464 s⁻¹; kon [5]: 130000 M⁻¹ s⁻¹

B1: MAdCAM-Ig (Fc fusion, human, UniProt Q13477 19-317, looked up)
chain: QSLQVKPLQVEPPEPVVAVALGASRQLTCRLACADRGASVQWRGLDTSLGAVQSDTGRSVLTVRNASLSAAGTRVCVGSCGGRTFQHTVQLLVYAFPDQLTVSPAALVPGDPEVACTAHKVTPVDPNALSFSLLVGGQELEGAQALGPEVQEEEEEPQGDEDVLFRVTERWRLPPLGTPVPPALYCQATMRLPGLELSHRQAIPVLHSPTSPEPPDTTSPESPDTTSPESPDTTSQEPPDTTSPEPPDKTSPEPAPQQGSTHTPRSPGSTRTRRPEISQAGPTQGEVIPTGSSKPAGDQ
notes: also called Hu-MAdCAM-Ig; recombinant MAdCAM-Ig
Q: For B1, which Ka [6] is on record?
A: 1.12e+08 M⁻¹

Q: And the Kd [6]?
A: 8.92 nM

Q: What about the koff [6] of the same molecule?
A: 0.000863 s⁻¹

Q: What about the kon [6] of the same molecule?
A: 96700 M⁻¹ s⁻¹

B2: VCAM-Ig (Fc fusion, UniProt P19320 25-698, looked up)
chain: FKIETTPESRYLAQIGDSVSLTCSTTGCESPFFSWRTQIDSPLNGKVTNEGTTSTLTMNPVSFGNEHSYLCTATCESRKLEKGIQVEIYSFPKDPEIHLSGPLEAGKPITVKCSVADVYPFDRLEIDLLKGDHLMKSQEFLEDADRKSLETKSLEVTFTPVIEDIGKVLVCRAKLHIDEMDSVPTVRQAVKELQVYISPKNTVISVNPSTKLQEGGSVTMTCSSEGLPAPEIFWSKKLDNGNLQHLSGNATLTLIAMRMEDSGIYVCEGVNLIGKNRKEVELIVQEKPFTVEISPGPRIAAQIGDSVMLTCSVMGCESPSFSWRTQIDSPLSGKVRSEGTNSTLTLSPVSFENEHSYLCTVTCGHKKLEKGIQVELYSFPRDPEIEMSGGLVNGSSVTVSCKVPSVYPLDRLEIELLKGETILENIEFLEDTDMKSLENKSLEMTFIPTIEDTGKALVCQAKLHIDDMEFEPKQRQSTQTLYVNVAPRDTTVLVSPSSILEEGSSVNMTCLSQGFPAPKILWSRQLPNGELQPLSENATLTLISTKMEDSGVYLCEGINQAGRSRKEVELIIQVTPKDIKLTAFPSESVKEGDTVIISCTCGNVPETWIILKKKAETGDTVLKSIDGAYTIRKAQLKDAGVYECESKNKVGSQLRSLTLDVQGRENNKDYFSPE
notes: also called recombinant VCAM-Ig
Q: Which results are given for B2?
A: Ka [6]: 2.76e+07 M⁻¹; Kd [6]: 36.3 nM; koff [6]: 0.00141 s⁻¹; kon [6]: 38700 M⁻¹ s⁻¹
